This is an account of results in PMC7006622.

The series concerns the target thrombin (UniProt P00734;P00734 328-363;364-622). Briefly: single-molecule TIRF, transient Cy3 probe binding to switch; LOD 20 pM (not a Kd); no specific signal without thrombin; 1x PBS with oxygen scavenger system, 20 nM Cy3 probe, 25 +/- 1 C; switch immobilised on PEG/biotin-PEG streptavidin glass.

B1: thrombin-responsive three-way-junction molecular switch (B4 + G13 + CP1, probed by FP1) (structured_DNA)
DNA 1: TGGGATGGTTGGTGTGGTTGGCCGTACTCTATGAGCCTCTG
DNA 2: TCAGTGGGGTTGGACGGGATGGTGCCTGACCGTGT
DNA 3: TTTTTCAGAGGCTCATAGAGTACGG
DNA 4: AAACACGGATCCCATA
Consider B1, for which the binding result is “binds”.
